In PMC6495647:

Assays:
[1] = molecular target: MucA’ protein (plasmid pKM101 (host species not stated)); experiment: SEC; Superdex 75 XK 16/60, 20 mM HEPES pH 7.4, 10% glycerol, 150 mM NaCl, 0.1 mM EDTA, 1 mM DTT; 1 ml of 2.5 mg/ml MucA’ applied; calibrated with protein standards
[2] = molecular target: β-subunit of DNA polymerase III holoenzyme of E. coli (E. coli) (UniProt P0A988); experiment: SPR; BIAcore 2000, kinetic analysis at lower ligand densities (577 RU of immobilized β, 1036 RU of immobilized MucA’ on CM5); MucB in the mobile phase; BSA reference cell; apparent constants; data not shown
β-subunit of DNA polymerase III holoenzyme of E. coli (E. coli), sequence (P0A988 whole entry): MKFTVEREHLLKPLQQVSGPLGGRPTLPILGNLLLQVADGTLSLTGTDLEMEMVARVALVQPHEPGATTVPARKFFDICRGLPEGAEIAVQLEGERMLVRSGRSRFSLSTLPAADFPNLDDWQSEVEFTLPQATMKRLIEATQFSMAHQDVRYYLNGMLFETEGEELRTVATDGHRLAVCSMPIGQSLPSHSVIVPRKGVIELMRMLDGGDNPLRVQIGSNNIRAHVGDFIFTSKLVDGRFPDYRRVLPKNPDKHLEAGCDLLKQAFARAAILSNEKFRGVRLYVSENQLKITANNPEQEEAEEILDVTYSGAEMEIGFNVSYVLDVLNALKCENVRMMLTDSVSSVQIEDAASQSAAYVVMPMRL

RecA = RecA (UniProt P0A7G6); experiment: SPR; another set of experiments; calculated KD for MucB and RecA; details not told
RecA, sequence (P0A7G6 whole entry): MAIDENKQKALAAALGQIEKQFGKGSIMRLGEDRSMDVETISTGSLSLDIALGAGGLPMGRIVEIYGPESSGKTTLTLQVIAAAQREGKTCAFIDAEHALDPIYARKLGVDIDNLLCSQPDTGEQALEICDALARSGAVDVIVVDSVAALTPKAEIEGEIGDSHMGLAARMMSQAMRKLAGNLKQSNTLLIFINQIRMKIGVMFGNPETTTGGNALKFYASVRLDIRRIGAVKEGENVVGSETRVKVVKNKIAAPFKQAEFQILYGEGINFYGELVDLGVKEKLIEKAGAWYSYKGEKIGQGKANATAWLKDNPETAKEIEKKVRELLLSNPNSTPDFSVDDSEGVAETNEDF

| Substance | stoichiometry N [1] | Kd [2] | amount bound (RU) [2] | koff [2] | kon [2] | Kd (RecA) |
| --- | --- | --- | --- | --- | --- | --- |
| MucA’ protein (natural protein) | 2 | – | – | – | – | – |
| MucB protein (from UniProt P07375 1-420) (enzyme) | – | 0.31 nM | 349 RU | 1.2e-05 s⁻¹ | 38700 M⁻¹ s⁻¹ | 2.41 nM |
